In patent US20070041944A1, “Treating tumors by ENH dislocation of ID proteins” (THE TRUSTEES OF COLUMBIA UNIVERSITY IN THE CITY OF NEW YORK, priority 2005, published 2007):

Assays:
Format in all cases: cell-based, human
[1] = system: Id2 inhibition of E47-mediated transcription; experiment: E-box-luciferase reporter assay; details: E-box-luc with E47, Id2 and increasing amounts of ENH (0.375, 0.5, 0.625 μg); FIG. 6A
Protocol: Luciferase Assay: The luciferase reporter construct 5xE-box-luciferase (Lasorella, A. et al., (1996) Mol. Cell. Biol., 16:2570-2578) was cotransfected with pcDNA.3-E47 and pcDNA.3 vector or pcDNA.3-Id2 and pcDNA.3-ENH into SK-N-SH cells. pCMV-β-gal was cotransfected for normalization. Twenty-four hours later luciferase and β-galactosidase activities were measured as described (Lasorella, A. et al., (2000) Nature, 407:592-598).
To test the hypothesis that ENH restrains the inhibitory effects of Id2 on bHLH-mediated transcription by acting as a cytoplasmic retention factor for Id2, luciferase reporter assays were performed with five multimerized E-boxes driving expression of luciferase (E-box-luc). The E-box-luc plasmid was transfected in the presence of mammalian expression vectors for the ubiquitously expressed bHLH protein E47, Id2, and increasing amounts of ENH. Id2 inhibition of E47-mediated transcription was relieved by coexpression of ENH in a dose-dependent manner (FIG. 6A).

[2] = system: IMR-32 neuroblastoma cell line; experiment: Colony-forming assay; details: transfected with pcDNA3-ENH, G418 selection 14 days
Source text: (§1) Cell Culture, Colony-Forming Assay, and Transfection: Neuroblastoma cell lines SK-N-SH, IMR-32, and LAN-1, the glioma cell lines SF188, and COS-1 cells were maintained in 10% FBS (Sigma) in DMEM (Cambrex). For colony-forming assay cells were transfected with pcDNA3-ENH or vector control. Cells were selected in G418 for 14 days, and colonies were scored in triplicate cultures. Cells were transfected by using Lipofectamine 2000 according to the manufacturer's instructions.
(§2) A well known function of Id2 is the ability to enhance cell proliferation by promoting the transition from G1 to S phase of the cell cycle. Therefore, it was asked whether ENH inhibited cell proliferation and opposed Id2-mediated entry into S phase. […] Next SK-N-SH was transfected with ENH and Id2 in the presence of a GFP expression plasmid and measured the rate of DNA synthesis by incorporation of BrdU of the successfully transfected, GFP-positive cells.

[3] = system: SK-N-SH neuroblastoma cell line; experiment: Colony-forming assay; details: transfected with pcDNA3-ENH, G418 selection 14 days
Source text: as §1, §2

SF188 glioma cell line = experiment: Colony-forming assay; details: transfected with pcDNA3-ENH, G418 selection 14 days
Source text: as §1, §2

Id2 inhibition of E47-mediated transcription (luciferase activity) [1]: relieved
B1: ENH: actin cytoskeleton-associated PDZ-LIM protein ENH (Enigma Homologue), full-length, SEQ ID NO:4; also used Flag-tagged (protein, listed as Homo sapiens)
chain: MSNYSVSLVGPAPWGFRLQGGKDFNMPLTISSLKDGGKAAQANVRIGDVVLSIDGINAQGMTHLEAQNKIKGCTGSLNMTLQRASAAPKPEPVPVQKGEPKEVVKPVPITSPAVSKVTSTNNMAYNKAPRPFGSVSSPKVTSIPSPSSAFTPAHATTSSHASPSPVAAVTPPLFAASGLHANANLSADQSPSALSAGKTAVNVPRQPTVTSVCSETSQELAEGQRRGSQGDSKQQNGPPRKHIVERYTEFYHVPTHSDASKKRLIEDTEDWRPRTGTTQSRSFRILAQITGTEHLKESEADNTKKANNSQEPSPQLASSVASTRSMPESLDSPTSGRPGVTSLTTAAAFKPVGSTGVIKSPSWQRPNQGVPSTGRISNSATYSGSVAPANSALGQTQPSDQDTLVQRAEHIPAGKRTPMCAHCNQVIRGPFLVALGKSWHPEEFNCAHCKNTMAYIGFVEEKGALYCELCYEKFFAPECGRCQRKILGEVINALKQTWHVSCFVCVACGKPIRNNVFHLEDGEPYCETDYYALFGTICHGCEFPIEAGDMFLEALGYTWHDTCFVCSVCCESLEGQTFFSKKDKPLCKKHAHSVNF
colony formation [2]: markedly inhibited | colony formation [3]: markedly inhibited | colony formation (SF188 glioma cell line): markedly inhibited
